# Data taken from US20220228164A1, “ENGINEERED ANTIGEN PRESENTING CELLS” (Neogene Therapeutics B.V., priority 2021, published 2022).
# Columns and labels:
# [1] = test system: NY-ESO 1G4 TCR transduced Jurkat cells; assay: TMG-expressing BCL-6/BCL-xL B cells with or without CD40L, co-culture with TCR Jurkat cells, CD69 (Example 7); format: cell-based, human; conditions: BCL-6/BCL-xL immortalized B cells, two donors, 20 hours
# Experimental: (§1) B cells from two healthy donors are isolated and immortalized by transduction with BCL-6/BCL-xL as described in Example 5 and 10 of this invention. In this Example, B cells are either transduced with BCL-6/BCL-xL alone or in combination with a CD40L transgene. After immortalization B cells are transduced with different TMG constructs encoding different numbers of 25mer polypeptides (1, 3, 12 or 40) and including LAMP1 signaling and transmembrane sequences. 96 hours post-transductions TMG-expressing B cells are enriched by antibiotic resistance selection as described in Examples 5 and 10. […]
# (§2) TCR expressing Jurkat T cells specific for two NY-ESO-1 derived T cell epitopes (5B8 epitope SLLMWITQCFLPVF; SEQ ID NO: 3; MHC-class II restricted T cell epitope and 1G4 epitope SLLMWITQC; SEQ ID NO: 4; MHC-class I restricted T cell epitope) are generated as described in Examples 5 and 10. […] After co-culture, CD69 expression by TCR transduced Jurkat T cells is measured by flow cytometry.
# (§3) FIG. 11A is Donor 1: NY-ESO 1G4 TCR transduced T cell reactivity towards TMG transduced BCL-6/BCL-XL immortalized B cells with or without CD40L. […] NY-ESO 1G4 TCR transduced Jurkat cells directed against one of the epitopes presented on Class I were then co-cultured with the B cells and reactivity was assessed by flowcytometry focusing on upregulation of CD69 on T cells. […]
# [2] = test system: NY-ESO 5B8 TCR transduced Jurkat cells; assay: as above; format: cell-based, human; conditions: BCL-6/BCL-xL immortalized B cells, two donors, 20 hours
# Experimental: as §1, §2, §3
molecule,measurement,setting,value
CD40L transgene: hCD40L transgene expressed in BCL-6/BCL-xL immortalized B cells (protein) DNA: MIETYNQTSPRSAATGLPISMKIFMYLLTVFLITQMIGSALFAVYLHRRLDKIEDERNLHEDFVFMKTIQRCNTGERSLSLLNCEEIKSQFEGFVKDIMLNKEETKKENSFEMQKGDQNPQIAAHVISEASSKTTSVLQWAEKGYYTMSNNLVTLENGKQLTVKRQGLYYIYAQVTFCSNREASSQAPFIASLCLKSPGRFERILLRAANTHSSAKPCGQQSIHLGGVFELQPGASVFVNVTDPSQVSHGTGFTSFGLLKL,MHC-class I antigen-presentation (CD69 expression by TCR transduced Jurkat T cells),[1],can increase
same,MHC-class II antigen presentation (CD69 expression by TCR transduced Jurkat T cells),[2],can increase
